Results on two sequences are retold here after patent US20140120625.

In this series the target is FLPe (thermostable FLP variant) (UniProt P03870). The series is described as follows: cell_activity.
Chain of UniProt P03870 (P03870 whole entry, change not shown): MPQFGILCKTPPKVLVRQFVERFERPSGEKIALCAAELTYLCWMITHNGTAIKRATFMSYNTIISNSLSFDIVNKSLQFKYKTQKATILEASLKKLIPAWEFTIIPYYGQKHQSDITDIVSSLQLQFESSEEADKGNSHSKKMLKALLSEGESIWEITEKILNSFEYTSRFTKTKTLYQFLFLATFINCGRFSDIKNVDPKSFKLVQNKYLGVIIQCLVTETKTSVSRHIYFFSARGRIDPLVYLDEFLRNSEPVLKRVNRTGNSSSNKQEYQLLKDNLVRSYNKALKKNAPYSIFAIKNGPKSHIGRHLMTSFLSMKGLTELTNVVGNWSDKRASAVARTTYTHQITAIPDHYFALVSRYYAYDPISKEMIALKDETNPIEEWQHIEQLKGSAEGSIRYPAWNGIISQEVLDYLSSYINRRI

In the case of “TTGAAGTTCCTATTCCGAGTTCCTATTCTCTAGAAAGTATAGGAACTTC (double strand) [FRT-F]”, the binding signal (simultaneous four-locus gene swapping frequency in A. niger M1146, FRT-F/FRT-F3 pair) amounted to 3 fold vs FLP.
In turn, “TTGAAGTTCCTATTCCGAGTTCCTATTCTTCAAATAGTATAGGAACTTCA (double strand) [FRT-F3]” displayed a binding signal (same assay, paired with FRT-F) of 3 fold vs FLP.
